Biological target: HIV-1 JR-CSF Env F468A (HIV-1 isolate JR-CSF) (UniProt P20871)
Experiment: cell-based or functional assay

B1: PGT-130 (antibody, V domains shown)
VH: QVQLQESGPGLVKPAETLSLTCSVSGESINTGHYYWGWVRQVPGKGLEWIGHIHYTTAVLHNPSLKSRLTIKIYTLRNQITLRLSNVTAADTAVYHCVRSGGDILYYYEWQKPHWFSPWGPGIHVTVSS
VL: QSALTQPPSASGSLGQSVTISCNGTSSDIGGWNFVSWYQQFPGRAPRLIIFEVNKRPSGVPGRFSGSKSGNSASLTVSGLQSDDEGQYFCSSLFGRWDVVFGGGTKLTVL
- Fold IC50 increase relative to wild-type: 0.4 fold

— patent publication US20250320281A1
